Reference: publication PMC2716403 (Journal of molecular biology, 2009)
Where two headings read alike, the source gives them in different places.

B1: Nup358-ZnF12 (domain or fragment)
chain: KEGSWWHCNSCSLKNASTAKKCVSCQNLNPSNKELVGPPLAETVFTPKTSPENVQDRFALVTPKKEGHWDCSICLVRNEPTVSRCIACQNTKSA

Experiments:
Assay in all cases: ITC
[1] = biological target: RanGDP (wild-type Ran, GDP-bound) (Rattus norvegicus, UniProt P62828 1-216)
[2] = biological target: T1, RanGDP (wild-type Ran, GDP-bound) (Rattus norvegicus, UniProt P62828 1-216); remark: listed apart in the source
[3] = biological target: T1, RanGDP (wild-type Ran, GDP-bound); remark: listed apart in the source

Binder	Kd [2]	Kd [3]	other results
GPLGSGSWQCEVCLVQNKADSTKCIACESAKPGTKSEFKGFGT (domain or fragment) [Nup153-ZnF4D8Q]	–	–	Kd [1]: 3000 nM
AGSSWQCDTCLLQNKVTDNKCIACQAAKL (domain or fragment) [Nup153-ZnF1]	6 µM	–	–
GTWDCDTCLVQNKPEAVKCVACETPKPG (domain or fragment) [Nup153-ZnF2]	–	49 µM	–
GSWDCEVCLVQNKADSTKCIACESAKPGTKSEFKGFGT (domain or fragment) [Nup153-ZnF4]	–	47 µM	–
VGSWECPVCCVSNKAEDSRCVSCTSEKP (domain or fragment) [Nup153-ZnF3]	7 µM	–	–
B1	–	15 µM	–
